Where no end group is shown, it is not given here.
Assays:
[1] = biological target: gp41, the Xenopus laevis ZP3, of the vitelline envelope (Xenopus laevis)
[2] = biological target: dicalcin (wild type)

Kd of the concentration dependence of the inhibition of in vitro fertilization [1] [nM] | in vitro fertilization rate after pretreatment of the VE with the peptide at 4 μM, normalised to control [1] | in vitro fertilization rate after preincubation of the VE with gpp2 (concentration series, highest at 4 μM), normalised to control [2] | Binder
33 | 25 % of control |  | SFSCNQKNK (also: biotin) [dcp11, dicalcin-derived peptide]
46 | 32 % of control |  | AALCKL (also: biotin) [dcp15, dicalcin-derived peptide]
 |  | 132 % of control | RYEIINQNGCLVDGKLDDSSSAF (also: biotin) [gpp2, gp41-derived peptide]

Reference: paper PMC4525147
